Among the data in article PMC8882047 are stoichiometry of inhibition (SI) and kon values, retold here.

Like-named read-outs stand apart in the source and are kept apart here.

The target in assay [1] is human plasmin (purified) (human). In words: enzyme inhibition titration.
The target is the same in assay [2]. In words: enzyme inhibition titration. The source holds these as a separate data set.
The target is the same in assay [3]. The assay can be described thus: enzyme inhibition progress curves.

The molecule “miropin (recombinant, tag-free) (from UniProt G8UQY8 1-432) (natural protein)” returned a stoichiometry of inhibition (SI) in assay [1] of 2.3.

B1: human α2-antiplasmin (natural protein)
chain: NQEQVSPLTLLKLGNQEPGGQTALKSPPGVCSRDPTPEQTHRLARAMMAFTADLFSLVAQTSTCPNLILSPLSVALALSHLALGAQNHTLQRLQQVLHAGSGPCLPHLLSRLCQDLGPGAFRLAARMYLQKGFPIKEDFLEQSEQLFGAKPVSLTGKQEDDLANINQWVKEATEGKIQEFLSGLPEDTVLLLLNAIHFQGFWRNKFDPSLTQRDSFHLDEQFTVPVEMMQARTYPLRWFLLEQPEIQVAHFPFKNNMSFVVLVPTHFEWNVSQVLANLSWDTLHPPLVWERPTKVRLPKLYLKHQMDLVATLSQLGLQELFQAPDLRGISEQSLVVSGVQHQSTLELSEVGVEAAAATSIAMSRMSLSSFSVNRPFLFFIFEDTTGLPLFVGSVRNPNPSAPRELKEQQDSPGNKDFLQSLKGFPRGDKLFGPDLKLVPPMEEDYPQFGSPK
What is called kon is the rate constant with which the complex forms. Consider B1, for which the stoichiometry of inhibition (SI) in assay [2] stood at 1.1. For the same molecule, in assay [3], the kon amounted to 1.3e+06 M⁻¹ s⁻¹.
